Laboratory results: patent US20170283834A1, “Processes for Producing A Fermentation Product Using A Fermenting Organism” (Novozymes A/S, priority 2014, published 2017)

Test system: zein
Experiment: Relative activity assay of protease variants (zein micro titer plate)
Type: biochemical
Protocol: Each well contains 200 microL of 0.05-0.1% of zein (Sigma), 0.25 mM ZnSO4 and 1% of agar in 20 mM sodium acetate buffer, pH 4.5.
Yeast clones on SC-glucose were inoculated to a well of a 96-well micro titre plate containing YPD+Zn medium and cultivated at 28° C. for 3 days. The culture supernatants were applied to a 96-well zein micro titer plate and incubated at at least 2 temperatures (ex. 60° C. and 65° C., 70° C. and 75° C., 70° C. and 80° C.) for more than 4 hours or overnight. The turbidity of zein in the plate was measured as A630 and the relative activity (higher/lower temperatures) was determined as an indicator of thermoactivity improvement. The clones with higher relative activity than the parental variant were selected and the sequence was determined.

Molecule	Relative activity 75° C./70° C. (Table 5, upper part)	Relative activity 80° C./70° C. (Table 5, upper part)	further results
JTP144: protease variant of SEQ ID NO: 3: A37P D79L S87P A112P D142L (protein, listed as Thermoascus aurantiacus) MRLVASLTALVALSVPVFPAAVNVKRASSYLEITLSQVSNTLIKAVVQNTGSDELSFVHLNFFKDPAPVKKVSVYRDGSEVQFEGILSRYKSTGLSRDAFTYLAPGESVEDVFDIASTYDLTSGGPVTIRTEGVVPYATANSTDIAGYISYSSNVLTIDVDGAAAATVSKAITPLDRRTRISSCSGSRQSALTTALRNAASLANAAADAAQSGSPSKFSEYFKTTSSSTRQTVAARLRAVAREASSSSSGATTYYCLDPYGYCSPNVLAYTLPSYNIIANCDIFYTYLPPLTSTCHAQDQATTALHEFTHAPGVYSPGTLDLAYGYQAAMGLSSSQAVMNADTYALYANAIYLGC	57%		
JTP194: protease variant of SEQ ID NO: 3: Y82F S87G D79L D104P A112P A126V D142L (protein, listed as Thermoascus aurantiacus) MRLVASLTALVALSVPVFPAAVNVKRASSYLEITLSQVSNTLIKAVVQNTGSDELSFVHLNFFKDPAPVKKVSVYRDGSEVQFEGILSRYKSTGLSRDAFTYLAPGESVEDVFDIASTYDLTSGGPVTIRTEGVVPYATANSTDIAGYISYSSNVLTIDVDGAAAATVSKAITPLDRRTRISSCSGSRQSALTTALRNAASLANAAADAAQSGSASKFSEYFKTTSSSTRQTVAARLRAVAREASSSSSGATTYYCLDPFGYCSGNVLAYTLPSYNIIANCPIFYTYLPPLTSTCHAQDQATTVLHEFTHAPGVYSPGTLDLAYGYQAAMGLSSSQAVMNADTYALYANAIYLGC			Relative activity 85° C./70° C. (Table 5, upper part): 22%
JTP187: protease variant of SEQ ID NO: 3: S70V D79L Y82F S87G A112P D142L (protein, listed as Thermoascus aurantiacus) MRLVASLTALVALSVPVFPAAVNVKRASSYLEITLSQVSNTLIKAVVQNTGSDELSFVHLNFFKDPAPVKKVSVYRDGSEVQFEGILSRYKSTGLSRDAFTYLAPGESVEDVFDIASTYDLTSGGPVTIRTEGVVPYATANSTDIAGYISYSSNVLTIDVDGAAAATVSKAITPLDRRTRISSCSGSRQSALTTALRNAASLANAAADAAQSGSASKFSEYFKTTSSSTRQTVAARLRAVAREASSSVSGATTYYCLDPFGYCSGNVLAYTLPSYNIIANCDIFYTYLPPLTSTCHAQDQATTALHEFTHAPGVYSPGTLDLAYGYQAAMGLSSSQAVMNADTYALYANAIYLGC		45%	
JTP181: protease variant of SEQ ID NO: 3: D79L Y82F S87G Y97W D104P A112P D142L (protein, listed as Thermoascus aurantiacus) MRLVASLTALVALSVPVFPAAVNVKRASSYLEITLSQVSNTLIKAVVQNTGSDELSFVHLNFFKDPAPVKKVSVYRDGSEVQFEGILSRYKSTGLSRDAFTYLAPGESVEDVFDIASTYDLTSGGPVTIRTEGVVPYATANSTDIAGYISYSSNVLTIDVDGAAAATVSKAITPLDRRTRISSCSGSRQSALTTALRNAASLANAAADAAQSGSASKFSEYFKTTSSSTRQTVAARLRAVAREASSSSSGATTYYCLDPFGYCSGNVLAYTLPSWNIIANCPIFYTYLPPLTSTCHAQDQATTALHEFTHAPGVYSPGTLDLAYGYQAAMGLSSSQAVMNADTYALYANAIYLGC		45%	
JTP180: protease variant of SEQ ID NO: 3: S70V D79L Y82F S87G Y97W A112P D142L (protein, listed as Thermoascus aurantiacus) MRLVASLTALVALSVPVFPAAVNVKRASSYLEITLSQVSNTLIKAVVQNTGSDELSFVHLNFFKDPAPVKKVSVYRDGSEVQFEGILSRYKSTGLSRDAFTYLAPGESVEDVFDIASTYDLTSGGPVTIRTEGVVPYATANSTDIAGYISYSSNVLTIDVDGAAAATVSKAITPLDRRTRISSCSGSRQSALTTALRNAASLANAAADAAQSGSASKFSEYFKTTSSSTRQTVAARLRAVAREASSSVSGATTYYCLDPFGYCSGNVLAYTLPSWNIIANCDIFYTYLPPLTSTCHAQDQATTALHEFTHAPGVYSPGTLDLAYGYQAAMGLSSSQAVMNADTYALYANAIYLGC		52%	
JTP145: protease variant of SEQ ID NO: 3: S49P D79L S87P A112P D142L (protein, listed as Thermoascus aurantiacus) MRLVASLTALVALSVPVFPAAVNVKRASSYLEITLSQVSNTLIKAVVQNTGSDELSFVHLNFFKDPAPVKKVSVYRDGSEVQFEGILSRYKSTGLSRDAFTYLAPGESVEDVFDIASTYDLTSGGPVTIRTEGVVPYATANSTDIAGYISYSSNVLTIDVDGAAAATVSKAITPLDRRTRISSCSGSRQSALTTALRNAASLANAAADAAQSGSASKFSEYFKTTSPSTRQTVAARLRAVAREASSSSSGATTYYCLDPYGYCSPNVLAYTLPSYNIIANCDIFYTYLPPLTSTCHAQDQATTALHEFTHAPGVYSPGTLDLAYGYQAAMGLSSSQAVMNADTYALYANAIYLGC	82%	59%	
JTP193: protease variant of SEQ ID NO: 3: Y82F S87G S70V D79L D104P A112P D142L (protein, listed as Thermoascus aurantiacus) MRLVASLTALVALSVPVFPAAVNVKRASSYLEITLSQVSNTLIKAVVQNTGSDELSFVHLNFFKDPAPVKKVSVYRDGSEVQFEGILSRYKSTGLSRDAFTYLAPGESVEDVFDIASTYDLTSGGPVTIRTEGVVPYATANSTDIAGYISYSSNVLTIDVDGAAAATVSKAITPLDRRTRISSCSGSRQSALTTALRNAASLANAAADAAQSGSASKFSEYFKTTSSSTRQTVAARLRAVAREASSSVSGATTYYCLDPFGYCSGNVLAYTLPSYNIIANCPIFYTYLPPLTSTCHAQDQATTALHEFTHAPGVYSPGTLDLAYGYQAAMGLSSSQAVMNADTYALYANAIYLGC			Relative activity 85° C./70° C. (Table 5, upper part): 15%
JTP210: protease variant of SEQ ID NO: 3: A27K Y82F S87G D104P A112P A126V D142L (protein, listed as Thermoascus aurantiacus) MRLVASLTALVALSVPVFPAAVNVKRASSYLEITLSQVSNTLIKAVVQNTGSDELSFVHLNFFKDPAPVKKVSVYRDGSEVQFEGILSRYKSTGLSRDAFTYLAPGESVEDVFDIASTYDLTSGGPVTIRTEGVVPYATANSTDIAGYISYSSNVLTIDVDGAAAATVSKAITPLDRRTRISSCSGSRQSALTTALRNAASLANKAADAAQSGSASKFSEYFKTTSSSTRQTVAARLRAVAREASSSSSGATTYYCDDPFGYCSGNVLAYTLPSYNIIANCPIFYTYLPPLTSTCHAQDQATTVLHEFTHAPGVYSPGTLDLAYGYQAAMGLSSSQAVMNADTYALYANAIYLGC			Relative activity 75° C./70° C. (Table 5, lower part): 107%; Relative activity 80° C./70° C. (Table 5, lower part): 36%
JTP146: protease variant of SEQ ID NO: 3: S50P D79L S87P A112P D142L (protein, listed as Thermoascus aurantiacus) MRLVASLTALVALSVPVFPAAVNVKRASSYLEITLSQVSNTLIKAVVQNTGSDELSFVHLNFFKDPAPVKKVSVYRDGSEVQFEGILSRYKSTGLSRDAFTYLAPGESVEDVFDIASTYDLTSGGPVTIRTEGVVPYATANSTDIAGYISYSSNVLTIDVDGAAAATVSKAITPLDRRTRISSCSGSRQSALTTALRNAASLANAAADAAQSGSASKFSEYFKTTSSPTRQTVAARLRAVAREASSSSSGATTYYCLDPYGYCSPNVLAYTLPSYNIIANCDIFYTYLPPLTSTCHAQDQATTALHEFTHAPGVYSPGTLDLAYGYQAAMGLSSSQAVMNADTYALYANAIYLGC	83%	63%	
JTP148: protease variant of SEQ ID NO: 3: D79L S87P D104P A112P D142L (protein, listed as Thermoascus aurantiacus) MRLVASLTALVALSVPVFPAAVNVKRASSYLEITLSQVSNTLIKAVVQNTGSDELSFVHLNFFKDPAPVKKVSVYRDGSEVQFEGILSRYKSTGLSRDAFTYLAPGESVEDVFDIASTYDLTSGGPVTIRTEGVVPYATANSTDIAGYISYSSNVLTIDVDGAAAATVSKAITPLDRRTRISSCSGSRQSALTTALRNAASLANAAADAAQSGSASKFSEYFKTTSSSTRQTVAARLRAVAREASSSSSGATTYYCLDPYGYCSPNVLAYTLPSYNIIANCPIFYTYLPPLTSTCHAQDQATTALHEFTHAPGVYSPGTLDLAYGYQAAMGLSSSQAVMNADTYALYANAIYLGC	76%	64%	
JTP189: protease variant of SEQ ID NO: 3: D79L Y82F S87G A112P A126V D142L (protein, listed as Thermoascus aurantiacus) MRLVASLTALVALSVPVFPAAVNVKRASSYLEITLSQVSNTLIKAVVQNTGSDELSFVHLNFFKDPAPVKKVSVYRDGSEVQFEGILSRYKSTGLSRDAFTYLAPGESVEDVFDIASTYDLTSGGPVTIRTEGVVPYATANSTDIAGYISYSSNVLTIDVDGAAAATVSKAITPLDRRTRISSCSGSRQSALTTALRNAASLANAAADAAQSGSASKFSEYFKTTSSSTRQTVAARLRAVAREASSSSSGATTYYCLDPFGYCSGNVLAYTLPSYNIIANCDIFYTYLPPLTSTCHAQDQATTVLHEFTHAPGVYSPGTLDLAYGYQAAMGLSSSQAVMNADTYALYANAIYLGC		46%	
JTP161: protease variant of SEQ ID NO: 3: D79L Y82F S87G A112P D142L (protein, listed as Thermoascus aurantiacus) MRLVASLTALVALSVPVFPAAVNVKRASSYLEITLSQVSNTLIKAVVQNTGSDELSFVHLNFFKDPAPVKKVSVYRDGSEVQFEGILSRYKSTGLSRDAFTYLAPGESVEDVFDIASTYDLTSGGPVTIRTEGVVPYATANSTDIAGYISYSSNVLTIDVDGAAAATVSKAITPLDRRTRISSCSGSRQSALTTALRNAASLANAAADAAQSGSASKFSEYFKTTSSSTRQTVAARLRAVAREASSSSSGATTYYCLDPFGYCSGNVLAYTLPSYNIIANCDIFYTYLPPLTSTCHAQDQATTALHEFTHAPGVYSPGTLDLAYGYQAAMGLSSSQAVMNADTYALYANAIYLGC		30%	Relative activity 85° C./70° C. (Table 5, upper part): 12%
